Numbered stars: 1 amine (or outer) side, 2 acyl side, 3 side chain; on linkers, the order of the positions; unused ones are H or OH. Square brackets hold non-standard residues; d marks the D form. Side chains are listed from the residue outwards. Ends that are not written are not given here. * marks the point of attachment. C18 diacid = O=C(O)CCCCCCCCCCCCCCCCC(=O)*; γGlu = O=C(O)[C@H](CCC(=O)[*:2])N[*:1]; αMeF = C[C@](N)(Cc1ccccc1)C(=O)O; hLeu = CC(C)CC[C@H](N)C(=O)O; AEEA = NCCOCCOCC(=O)O; Aib = CC(C)(N)C(=O)O
T1: human GIP receptor (human, UniProt P48546 22-466)
T1 sequence (looked up): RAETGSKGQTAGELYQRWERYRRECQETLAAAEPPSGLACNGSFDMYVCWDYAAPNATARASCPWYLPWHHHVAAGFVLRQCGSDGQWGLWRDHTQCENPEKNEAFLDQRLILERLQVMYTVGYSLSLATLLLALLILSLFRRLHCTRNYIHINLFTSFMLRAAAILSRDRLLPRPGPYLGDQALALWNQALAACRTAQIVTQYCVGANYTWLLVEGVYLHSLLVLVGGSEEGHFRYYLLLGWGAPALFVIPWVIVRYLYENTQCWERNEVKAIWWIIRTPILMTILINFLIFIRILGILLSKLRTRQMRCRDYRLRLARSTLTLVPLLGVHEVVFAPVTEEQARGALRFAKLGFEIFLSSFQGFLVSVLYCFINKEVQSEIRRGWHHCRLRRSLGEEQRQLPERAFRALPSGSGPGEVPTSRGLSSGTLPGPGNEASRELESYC


Experiments:
[1] = target: T1, human GIP receptor; assay: cell-based or functional assay
[2] = target: T2, human GLP-1 receptor (human, UniProt P43220 24-463); assay: cell-based or functional assay
[3] = target: T1, human GIP receptor; assay: cell-based or functional assay; remark: listed apart in the source
[4] = target: T2, human GLP-1 receptor; assay: displacement of [125I]GLP-1 from HEK-293 membranes expressing hGLP-1R (SPA beads)

| Binder | EC50 hGIPR 0% HSA (cAMP, HEK-293) [1] | EC50 hGIPR 0.1% BSA (cAMP, HEK-293) [1] | EC50 hGLP-1R 0.1% BSA (cAMP, HEK-293) [2] | hGIPR EC50 (cAMP, human adipocytes) [3] | hGIPR Emax (cAMP, human adipocytes) [3] | IC50 [4] |
| --- | --- | --- | --- | --- | --- | --- |
| Y[Aib]EGTFISDLSI[Aib]K([AEEA-AEEA-γGlu-C18 diacid])DRIHQEEFIEWLLAQEPSSGAPPPS-OH (N-terminus assumed; SMILES CC[C@H](C)[C@H](NC(=O)[C@H](Cc1ccccc1)NC(=O)[C@H](CCC(=O)O)NC(=O)[C@H](CCC(=O)O)NC(=O)[C@H](CCC(N)=O)NC(=O)[C@H](Cc1c[nH]cn1)NC(=O)[C@@H](NC(=O)[C@H](CCCNC(=N)N)NC(=O)[C@H](CC(=O)O)NC(=O)[C@H](CCCCNC(=O)COCCOCCNC(=O)COCCOCCNC(=O)CC[C@H](NC(=O)CCCCCCCCCCCCCCCCC(=O)O)C(=O)O)NC(=O)C(C)(C)NC(=O)[C@@H](NC(=O)[C@H](CO)NC(=O)[C@H](CC(C)C)NC(=O)[C@H](CC(=O)O)NC(=O)[C@H](CO)NC(=O)[C@@H](NC(=O)[C@H](Cc1ccccc1)NC(=O)[C@@H](NC(=O)CNC(=O)[C@H](CCC(=O)O)NC(=O)C(C)(C)NC(=O)[C@@H](N)Cc1ccc(O)cc1)[C@@H](C)O)[C@@H](C)CC)[C@@H](C)CC)[C@@H](C)CC)C(=O)N[C@@H](CCC(=O)O)C(=O)N[C@@H](Cc1c[nH]c2ccccc12)C(=O)N[C@@H](CC(C)C)C(=O)N[C@@H](CC(C)C)C(=O)N[C@@H](C)C(=O)N[C@@H](CCC(N)=O)C(=O)N[C@@H](CCC(=O)O)C(=O)N1CCC[C@H]1C(=O)N[C@@H](CO)C(=O)N[C@@H](CO)C(=O)NCC(=O)N[C@@H](C)C(=O)N1CCC[C@H]1C(=O)N1CCC[C@H]1C(=O)N1CCC[C@H]1C(=O)N[C@@H](CO)C(=O)O, Synthetic peptide, 39 residues (Glu at 30)) [SEQ ID NO: 28] | 0.00073 nM | 0.0647 nM | > 10 nM | 0.5 nM | 103% | 426 nM |
| H-Y[Aib]EGTFISD[hLeu]SI[Aib]K([AEEA-AEEA-γGlu-C18 diacid])DRIHQEEFIEWLLAQGPSSGAPPPS-NH2 (SMILES CC[C@H](C)[C@H](NC(=O)[C@H](Cc1ccccc1)NC(=O)[C@H](CCC(=O)O)NC(=O)[C@H](CCC(=O)O)NC(=O)[C@H](CCC(N)=O)NC(=O)[C@H](Cc1c[nH]cn1)NC(=O)[C@@H](NC(=O)[C@H](CCCNC(=N)N)NC(=O)[C@H](CC(=O)O)NC(=O)[C@H](CCCCNC(=O)COCCOCCNC(=O)COCCOCCNC(=O)CC[C@H](NC(=O)CCCCCCCCCCCCCCCCC(=O)O)C(=O)O)NC(=O)C(C)(C)NC(=O)[C@@H](NC(=O)[C@H](CO)NC(=O)[C@H](CCC(C)C)NC(=O)[C@H](CC(=O)O)NC(=O)[C@H](CO)NC(=O)[C@@H](NC(=O)[C@H](Cc1ccccc1)NC(=O)[C@@H](NC(=O)CNC(=O)[C@H](CCC(=O)O)NC(=O)C(C)(C)NC(=O)[C@@H](N)Cc1ccc(O)cc1)[C@@H](C)O)[C@@H](C)CC)[C@@H](C)CC)[C@@H](C)CC)C(=O)N[C@@H](CCC(=O)O)C(=O)N[C@@H](Cc1c[nH]c2ccccc12)C(=O)N[C@@H](CC(C)C)C(=O)N[C@@H](CC(C)C)C(=O)N[C@@H](C)C(=O)N[C@@H](CCC(N)=O)C(=O)NCC(=O)N1CCC[C@H]1C(=O)N[C@@H](CO)C(=O)N[C@@H](CO)C(=O)NCC(=O)N[C@@H](C)C(=O)N1CCC[C@H]1C(=O)N1CCC[C@H]1C(=O)N1CCC[C@H]1C(=O)N[C@@H](CO)C(N)=O, Synthetic peptide, 39 residues) [SEQ ID NO: 34] | 0.00022 nM | 0.0335 nM | > 10 nM | 0.5 nM | 112% | 195 nM |
| H-Y[Aib]EGTFISDLSI[Aib]K([AEEA-AEEA-γGlu-C18 diacid])DRIHQEE[αMeF]IEWLLAQGPSSGAPPPS-NH2 (SMILES CC[C@H](C)[C@H](NC(=O)[C@H](CCCNC(=N)N)NC(=O)[C@H](CC(=O)O)NC(=O)[C@H](CCCCNC(=O)COCCOCCNC(=O)COCCOCCNC(=O)CC[C@H](NC(=O)CCCCCCCCCCCCCCCCC(=O)O)C(=O)O)NC(=O)C(C)(C)NC(=O)[C@@H](NC(=O)[C@H](CO)NC(=O)[C@H](CC(C)C)NC(=O)[C@H](CC(=O)O)NC(=O)[C@H](CO)NC(=O)[C@@H](NC(=O)[C@H](Cc1ccccc1)NC(=O)[C@@H](NC(=O)CNC(=O)[C@H](CCC(=O)O)NC(=O)C(C)(C)NC(=O)[C@@H](N)Cc1ccc(O)cc1)[C@@H](C)O)[C@@H](C)CC)[C@@H](C)CC)C(=O)N[C@@H](Cc1c[nH]cn1)C(=O)N[C@@H](CCC(N)=O)C(=O)N[C@@H](CCC(=O)O)C(=O)N[C@@H](CCC(=O)O)C(=O)N[C@@](C)(Cc1ccccc1)C(=O)N[C@H](C(=O)N[C@@H](CCC(=O)O)C(=O)N[C@@H](Cc1c[nH]c2ccccc12)C(=O)N[C@@H](CC(C)C)C(=O)N[C@@H](CC(C)C)C(=O)N[C@@H](C)C(=O)N[C@@H](CCC(N)=O)C(=O)NCC(=O)N1CCC[C@H]1C(=O)N[C@@H](CO)C(=O)N[C@@H](CO)C(=O)NCC(=O)N[C@@H](C)C(=O)N1CCC[C@H]1C(=O)N1CCC[C@H]1C(=O)N1CCC[C@H]1C(=O)N[C@@H](CO)C(N)=O)[C@@H](C)CC, Synthetic peptide, 39 residues) [SEQ ID NO: 32] | 0.00096 nM | 0.119 nM | > 10 nM | 0.6 nM | 109% | 650 nM |

Reference: patent US20240360194A1, “New Peptides as Potent and Selective GIP Receptor Agonists” (Sanofi, priority 2021, published 2024)
